According to US20240174763A1 (NOVOPROTEIN SCIENTIFIC, published 2024):

Tests used:
[1] = target: T1, human CD73 on SK-OV-3 cells (human ovarian adenocarcinoma cells) (human, UniProt P21589 27-549); assay: cell-based or functional assay
T1 sequence (looked up): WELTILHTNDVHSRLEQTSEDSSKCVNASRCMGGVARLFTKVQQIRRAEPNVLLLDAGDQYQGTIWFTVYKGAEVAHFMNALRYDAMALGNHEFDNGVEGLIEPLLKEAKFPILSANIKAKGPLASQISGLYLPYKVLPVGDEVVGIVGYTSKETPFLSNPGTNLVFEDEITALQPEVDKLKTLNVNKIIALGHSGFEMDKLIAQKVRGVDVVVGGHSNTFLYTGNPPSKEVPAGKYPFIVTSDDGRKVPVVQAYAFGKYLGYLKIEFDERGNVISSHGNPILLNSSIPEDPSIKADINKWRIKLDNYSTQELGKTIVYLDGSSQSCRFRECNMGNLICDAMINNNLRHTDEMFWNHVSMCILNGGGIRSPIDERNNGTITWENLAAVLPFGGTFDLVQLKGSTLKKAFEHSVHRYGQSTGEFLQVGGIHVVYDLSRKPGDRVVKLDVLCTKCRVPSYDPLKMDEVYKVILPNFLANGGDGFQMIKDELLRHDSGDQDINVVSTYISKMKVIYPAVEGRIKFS

[2] = target: T2, monkey CD73 on CHOK1-cynoCD73 cells (monkey, UniProt A0A2K5V5U7 27-549, GPI anchor at the C-terminus of the mature chain (paragraph 3 says CD73 is GPI-anchored). The propeptide 550-574 is removed.); assay: cell-based or functional assay
T2 sequence: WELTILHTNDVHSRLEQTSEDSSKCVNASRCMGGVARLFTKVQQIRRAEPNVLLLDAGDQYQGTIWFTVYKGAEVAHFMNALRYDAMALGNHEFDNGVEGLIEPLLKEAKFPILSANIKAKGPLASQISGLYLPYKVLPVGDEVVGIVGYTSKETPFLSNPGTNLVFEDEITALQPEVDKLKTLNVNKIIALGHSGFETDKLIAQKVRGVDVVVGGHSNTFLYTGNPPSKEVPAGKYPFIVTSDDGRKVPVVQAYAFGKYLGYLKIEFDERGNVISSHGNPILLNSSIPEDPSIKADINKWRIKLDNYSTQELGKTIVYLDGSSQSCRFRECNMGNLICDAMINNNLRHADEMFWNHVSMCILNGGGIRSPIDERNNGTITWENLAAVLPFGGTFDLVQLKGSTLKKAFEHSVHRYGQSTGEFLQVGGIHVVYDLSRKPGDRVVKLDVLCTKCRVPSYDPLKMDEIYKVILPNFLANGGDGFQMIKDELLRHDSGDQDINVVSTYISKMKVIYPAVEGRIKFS

[3] = target: T1, human CD73 on SK-OV-3 cells (human …); assay: flow cytometry on SK-OV-3 cells
Protocol: 4×10⁵ cells SK-OV-3 were taken, triple gradient (0.009-20 μg/ml) dilution of CQ137 protein was added, incubated for 1 h, washed three times with PBS, Anti-hFC-APC (purchased from Jackson immunology) was added, and detected by flow cytometry.

[4] = target: T2, monkey CD73 on CHOK1-cynoCD73 cells; assay: flow cytometry on CHOK1-cynoCD73 cells
Protocol: The full length of monkey CD73 was constructed on a eukaryotic expression vector containing NEO resistance, CHO-K1 cells were transfected, G418 was used for screening to obtain a CHOK1-cynoCD73 cell strain. 4×10⁵ CHOK1-cynoCD73 cells were taken and a gradient diluted CQ137 protein was added, after incubation was performed for 1 h, the cells were washed with PBS for three times, […] (purchased from Jackson Immunology) was added, and detected by flow cytometry.

[5] = target: T3, recombinant monkey CD73 protein (monkey, UniProt A0A2K5V5U7 27-549); assay: ELISA, plate coated with recombinant monkey CD73 at 3 µg/mL
T3 construct: Monkey species not further named for the recombinant protein (the cell line is called cynoCD73)
T3 sequence: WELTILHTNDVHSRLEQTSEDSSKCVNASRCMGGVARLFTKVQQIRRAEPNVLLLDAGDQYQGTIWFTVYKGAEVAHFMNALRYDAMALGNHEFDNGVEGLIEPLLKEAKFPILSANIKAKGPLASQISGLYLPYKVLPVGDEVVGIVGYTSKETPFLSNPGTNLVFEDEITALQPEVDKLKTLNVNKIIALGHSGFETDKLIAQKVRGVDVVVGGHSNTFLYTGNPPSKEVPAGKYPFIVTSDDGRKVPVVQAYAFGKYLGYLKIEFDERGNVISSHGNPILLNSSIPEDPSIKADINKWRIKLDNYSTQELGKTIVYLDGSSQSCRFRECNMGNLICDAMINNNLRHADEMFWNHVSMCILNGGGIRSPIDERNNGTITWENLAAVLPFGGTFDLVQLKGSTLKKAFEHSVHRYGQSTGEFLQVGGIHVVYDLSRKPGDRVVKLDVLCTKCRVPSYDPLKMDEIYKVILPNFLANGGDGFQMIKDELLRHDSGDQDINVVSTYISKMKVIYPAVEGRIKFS
Protocol: (§1) The recombinant monkey CD73 protein was packaged in plates according to a 3 μg/mL and a gradient diluted CQ137 was added.

[6] = target: T3, recombinant monkey CD73 protein; assay: ELISA, recombinant monkey CD73 coated at 3 ug/mL
Protocol: as §1

[7] = target: T4, recombinant human CD73 protein (human, UniProt P21589 27-547, limits assumed); assay: Biacore (SPR), CQ137 immobilised, CD73 protein 2.5 nM-40 nM
T4 construct: Bought recombinant protein; the assays only say recombinant human CD73; also called rhCD73; recombinant hCD73 protein
T4 sequence (looked up): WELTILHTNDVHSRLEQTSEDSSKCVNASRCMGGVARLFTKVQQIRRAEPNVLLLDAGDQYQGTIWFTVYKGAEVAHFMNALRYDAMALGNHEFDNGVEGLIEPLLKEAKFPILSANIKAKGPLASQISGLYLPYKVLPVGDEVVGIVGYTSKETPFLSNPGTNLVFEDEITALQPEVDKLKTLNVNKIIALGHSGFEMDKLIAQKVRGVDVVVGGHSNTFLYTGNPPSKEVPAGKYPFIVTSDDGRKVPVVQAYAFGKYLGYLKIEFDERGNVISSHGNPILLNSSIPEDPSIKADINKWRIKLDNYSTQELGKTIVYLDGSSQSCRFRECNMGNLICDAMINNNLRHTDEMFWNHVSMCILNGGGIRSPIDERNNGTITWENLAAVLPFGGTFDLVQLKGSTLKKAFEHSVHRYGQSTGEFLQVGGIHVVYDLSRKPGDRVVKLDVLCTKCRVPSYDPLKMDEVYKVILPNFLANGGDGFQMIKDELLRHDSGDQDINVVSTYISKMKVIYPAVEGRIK
Protocol: The affinity of CQ137 to recombinant hCD73 protein was determined by Biacore, CQ137 was cured.

IC50 of inhibition of CD73 enzyme activity on SK-OV-3 cells [1]: 371 ng/mL | IC50 of inhibition of CD73 enzyme activity on CHOK1-cynoCD73 cells [2]: 990 ng/mL | EC50 [3]: 0.588 ng/mL | EC50 [4]: 0.0999 ng/mL | EC50 [5]: 217 ng/mL | EC50 (read off the curve) [6]: ~200 ng/mL | Kd [7]: 0.0865 nM | koff [7]: 6.04e-05 s⁻¹ | kon [7]: 698000 M⁻¹ s⁻¹
B1: CQ137 antibody protein (human mouse chimeric anti-CD73 full-length antibody) (antibody, human IgG1, kappa, V domains shown)
VH: EVQLQQSGPELVKPGASVKISCKASGYSFTGYYIHWVKQSHVKSLEWIGRINPYNGATTYNQNFKDKASLTVDKSSSTAYMELHSLTSEDSAVYYCARFHYGAPDYWGQGTTLTVSS
VL: DILMTQSPSSMYASLGERVTITCKASQDINTYLTWFQQKPGKSPKTLIYRANILVDGVPSRFSGSGSGQDYSLTISSLEFEDMGIYYCLQYDEFPLTFGAGTKLELKR
